Reference: patent publication US20140056920A1 (Sanofi, published 2014)

Target: T1, mouse IL-4Rα (mouse, UniProt P16382 26-233, limits assumed)
T1 construct: also called mouse IL-4Rα protein; mIL-4Rα
T1 sequence (looked up): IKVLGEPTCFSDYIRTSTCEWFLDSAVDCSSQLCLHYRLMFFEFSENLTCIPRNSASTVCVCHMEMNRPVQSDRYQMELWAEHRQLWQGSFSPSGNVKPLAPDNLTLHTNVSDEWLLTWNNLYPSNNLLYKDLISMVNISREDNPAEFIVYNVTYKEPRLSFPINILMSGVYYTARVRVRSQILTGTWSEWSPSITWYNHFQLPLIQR
Experiment: not described (stated in Materials and Methods of Example 4)

B1: mAb1 (human anti-IL-4R antibody H1H098-b) (antibody, V domains shown)
VH: EVQLVESGGGLEQPGGSLRLSCAGSGFTFRDYAMTWVRQAPGKGLEWVSSISGSGGNTYYADSVKGRFTISRDNSKNTLYLQMNSLRAEDTAVYYCAKDRLSITIRPRYYGLDVWGQGTTVTVS
VL: DIVMTQSPLSLPVTPGEPASISCRSSQSLLYSIGYNYLDWYLQKSGQSPQLLIYLGSNRASGVPDRFSGSGSGTDFTLKISRVEAEDVGFYYCMQALQTPYTFGQGTKLEIK
notes: also called anti-IL-4R antibody mAb1; REGN668/SAR231893
  binding result: no binding
